T1: CD27 expressed on the cell surface (HT1080_CD27 cells) (human, UniProt P26842 20-260)
T1 sequence (looked up): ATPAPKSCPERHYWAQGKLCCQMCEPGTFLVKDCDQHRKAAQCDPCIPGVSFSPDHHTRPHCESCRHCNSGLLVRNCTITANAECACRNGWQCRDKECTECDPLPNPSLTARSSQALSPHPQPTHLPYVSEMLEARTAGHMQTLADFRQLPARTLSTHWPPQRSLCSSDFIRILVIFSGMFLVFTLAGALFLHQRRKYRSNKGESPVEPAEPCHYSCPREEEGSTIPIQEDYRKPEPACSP

T2: CD27 protein (His-tagged, Sino Biological Inc. 10039-H08B1) (human, UniProt P26842 20-192)
T2 construct: bought; coated onto ELISA plates; also called human CD27; recombinant protein; not shown: His tag
T2 sequence (looked up): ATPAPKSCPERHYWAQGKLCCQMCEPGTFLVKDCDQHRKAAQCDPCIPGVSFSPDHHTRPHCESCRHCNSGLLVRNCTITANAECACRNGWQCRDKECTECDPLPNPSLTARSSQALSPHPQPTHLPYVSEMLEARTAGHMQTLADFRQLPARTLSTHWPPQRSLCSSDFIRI

T3: CD134 expressed on the cell surface of HT1080_OX40 cells (human, UniProt P43489 29-277)
T3 sequence (looked up): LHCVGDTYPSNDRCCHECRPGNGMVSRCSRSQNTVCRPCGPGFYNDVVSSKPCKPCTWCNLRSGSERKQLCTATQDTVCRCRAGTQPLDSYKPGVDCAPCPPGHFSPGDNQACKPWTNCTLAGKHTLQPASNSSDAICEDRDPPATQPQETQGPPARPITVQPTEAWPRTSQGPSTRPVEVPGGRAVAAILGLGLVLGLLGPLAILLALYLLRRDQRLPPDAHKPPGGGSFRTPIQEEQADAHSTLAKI

T4: CD134 protein (His-tagged, Sino Biological Inc. 10481-H08H) (human, UniProt P43489 29-216)
T4 construct: bought protein coated on ELISA plates; also called OX40; TNFRSF4; not shown: His tag
T4 sequence (looked up): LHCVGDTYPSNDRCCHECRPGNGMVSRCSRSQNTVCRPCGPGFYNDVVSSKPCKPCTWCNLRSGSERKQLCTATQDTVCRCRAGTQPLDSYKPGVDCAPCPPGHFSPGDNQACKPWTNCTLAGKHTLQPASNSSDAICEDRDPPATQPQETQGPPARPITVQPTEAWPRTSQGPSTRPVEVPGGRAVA


Experiments:
[1] = target: T1, CD27 expressed on the cell surface …; experiment: cell-based or functional assay
[2] = target: T2, CD27 protein (His-tagged, Sino …); experiment: ELISA on coated His-tagged CD27
[3] = target: T1, CD27 expressed on the cell surface …; experiment: cellular binding assay, HT1080_CD27 cells
[4] = target: T3, CD134 expressed on the cell surface of …; experiment: cell-based or functional assay
[5] = target: T4, CD134 protein (His-tagged, Sino …); experiment: ELISA, coated His-tagged CD134
[6] = target: T3, CD134 expressed on the cell surface of …; experiment: HT1080_OX40 cells, imaging
Note: test concentration or dose not given here.

Row | Binder | IL-8, cross-linked by F(ab')2 fragment [abs. corr.] [1] [abs. corr.] | IL-8 [abs. corr.] [1] [abs. corr.] | ELISA [abs. corr.] [2] [abs. corr.] | Cellular binding assay [RFU] [3] [RFU] | Functional assay Cross-linked by F(ab′)2 fragment IL-8 [4] [abs. corr.] | Functional assay IL-8 [4] [abs. corr.] | ELISA [abs. corr.] [5] [abs. corr.] | Cellular binding assay [RFU] [6] [RFU]
1 | P018.S.04.A.E04 (antibody, V domains shown, V regions on human Ig constant parts; also called AB27_75) VH: QSVEESGGRLVTPGTPLTLTCTVSGFSLSTYAMNWIRQAPGKGLEWIGTITTGGSTFFASWAKGRFTISKTSTTVDLKITSPTTEDTATYFCARGGDTGYGFSYFDLWGQGTLVTVSS VL: AVVLTQTPASVSEPVGGTVTIKCQASENIYSSLAWYQQKPGQPPKLLIYDASTLASGVPSRFKGSGSGTEYTLTISGVQSDDAATYYCQQGYSTSNLVNPFGGGTELVVN | 1.34 | 0.641 | 3.38 | 283 | – | – | – | –
2 | P018.S.02.A.G01 (antibody, V domains shown, V regions on human Ig constant parts; also called AB27_37) VH: QSLEESGGRLVTPGTPLTLTCTVSGIDLSSNAMNWVRQAPGKGLEWIGIIYTSGSTYYASWVKGRFTISRTSTTVDLEMTSLTTEDTATYFCARGVTIDWFDLWGQGTLVTVSS VL: AAVLTQTPSSVSAAVGGTVTINCQSSPSVYSNYLSWFQQKPGQPPKLLIYGASTLTSGVPSRFKGSGSGTQFTLTINDVQSDDAATYWCLGGYGDINDTTFGGGTEVVVK | 1.52 | 0.127 | 3.41 | 332 | – | – | – | –
3 | P018.S.02.A.F01 (antibody, V domains shown, V regions on human Ig constant parts; also called AB134_1) VH: QSVEESGGRLVTPGTPLTLTCTVSGFSLSSYAMSWVRQAPGKGLEWIGIISSSGVTYYASWAKGRFTISKTSTTVDLRITGPTTEDTATYFCARDPGYSTGWDYFFRLWGQGTLVTVSS VL: AIKMTQTPASVSAAVGGTVSINCQASEDIESYLAWYQQKPGQPPKLLIYDASDLPSGVPSRFKGSGSGKQFTLTISGVQSDDAATYYCQHGAYTSSSDFFYAFGGGTEVVVK | – | – | – | – | 2.34 | 0.115 | 2.69 | 498
4 | P018.S.11.A.F05 (antibody, V domains shown, V regions on human Ig constant parts; also called AB134_41) VH: QSLEESGGRLVTPGTPLTLTCTVSGFSLSRYHMSWVRQAPGKGLEYIGYIHTDDTNWYASWAKGRFTISKTSTTVDLKITSPTTEDTATYFCARVSSVGGYYFDLWGQGTLVTVSS VL: DVVMTQTPASVSEPVGGTVTIKCQASEDIYNLLAWYQQKPGQPPKLLIYAASTLASGVPSRFKGSGSGTQFTLTISDLESADAATYYCQNNYLISSYGVGFGGGTEVVVK | – | – | – | – | 2.15 | 0.33 | 1.67 | 396
5 | P018.S.03.A.G06 (antibody, V domains shown, V regions on human Ig constant parts; also called AB27_59) VH: QSLEESGGDLVKPGASLTLTCTASGFSFSRNNYMCWVRQAPGKGLESIACIHDGNSVGIYYTTWAKGRFTISKTSSTTVTLQMTSLTVADTATYFCARMSYTNDWDPIWGPGTLVTVSS VL: DIVMTQTPASVEAAVGGTVTIDCQASENIYSLLAWYQQKPGQPPKVLISLASNLASGVPSRFKGSGSGTQFSLTISDLESADAATYYCQGYYYSSSTSYENAFGGGTEVVVS | 1.36 | 0.56 | 3.4 | 302 | – | – | – | –
6 | P018.S.11.A.F04 (antibody, V domains shown, V regions on human Ig constant parts; also called AB134_40) VH: QSVEESGGRLVTPGTPLTLTCTVSGFSLSRYTMGWVRQAPGKGLEYIGIIYGDDNTYYASWAKGRLTISKTSSTTVDLKITSPTTEDTATYFCASCAPIYYNTFSFNLWGQGTLVTVSA VL: AYDMTQTPASVEVAVGGTVTIKCQASQTIGGSLSWYQQKPGQPPKLLIYAAATLASGVPSRFKGSGSGTQFTLTISGVESDDAATYYCQQHYTGDNVNNPFGGGTEVVVK | – | – | – | – | 2.11 | 0.568 | 2.25 | 486
7 | P018.S.11.A.D04 (antibody, V domains shown, V regions on human Ig constant parts; also called AB134_31) VH: QSVEESGGRLVTPGTPLTLTCTVSGFSLNSYDMSWVRQAPGKGLEWIGFISASGSIYFASWAKGRFTISKTSTTVDLKITSPTTEDTATYFCASDSYGWAYVYYFNLWGPGTLVTVSS VL: AVVLTQTPASVSPAVGGTVTINCRASEDIGSYLGWYQQKPGQPPKLLMHDASDLASGVPSRFSGSGSGTEFTLTISGVQSDDAATYYCQSAWYSSNTDKMAFGGGTEVVVK | – | – | – | – | 2.04 | 0.38 | 2.07 | 530
8 | P018.S.04.A.B04 (antibody, V domains shown, V regions on human Ig constant parts; also called AB134_6) VH: QSLEESGGRLVTPGTPLTLTCTASGIDLNNYAMSWVRQAPGKGLEWIGIISGAGYTYYTTWAKGRFTISKTSTTVDLKITSPTTEDTATYFCARIYDSYGYAYVPYYDMDLWGPGTLVTVSS VL: AAVLTQTPSPVSTAVGGTVTINCQSSQSVFMNNYLSWYQQKPGQPPKLLIYDASTLASRVPDRFSGSGSGTQFTLTISGVQSDDAAAYYCLGGYDDDSATTFGGGTEVVVE | – | – | – | – | 2.11 | 1.99 | 3.21 | 331

Next, values leading:

Row | IL-8, cross-linked by F(ab')2 fragment [abs. corr.] [1] [abs. corr.] | IL-8 [abs. corr.] [1] [abs. corr.] | ELISA [abs. corr.] [2] [abs. corr.] | Cellular binding assay [RFU] [3] [RFU] | Functional assay Cross-linked by F(ab′)2 fragment IL-8 [4] [abs. corr.] | Functional assay IL-8 [4] [abs. corr.] | ELISA [abs. corr.] [5] [abs. corr.] | Cellular binding assay [RFU] [6] [RFU] | Binder
9 | – | – | – | – | 2.14 | 0.936 | 2.05 | 571 | P018.S.12.A.C02 (antibody, V domains shown, V regions on human Ig constant parts; also called AB134_62) VH: QEQLVESGGGLVQPEGSLTLTCTASGFSFSNNAMCWVRQAPGKGLEWIACIYDGSSGSTYYATWAKGRFTISKTSSTTVTLQMTSLTAADTATYFCARAYGGYTVYDYAFNLWGPGTLVTVSS VL: DVVMTQTPASVSEPVGGTVTIKCQASQSIGSDLAWYQQKPGQPPKLLIYYTTNLETGVSSRFKGSRSGTEYALTISDLESADAATYYCQYGVRSTYSFGGGTEVVVK
10 | – | – | – | – | 2.06 | 0.27 | 1.07 | 357 | P018.S.11.A.G02 (antibody, V domains shown, V regions on human Ig constant parts; also called AB134_42) VH: QSVEESGGRLVTPGTPLTLTCTVSGFSLSGYDMSWVRQAPGKGLEWIGYIYGGNTYYANWAKGRFTISKTSTTVDLKMTSPTTEDTATYFCTRVGAGYSGVWAYFNLWGPGTLVTVSS VL: AQVLTQTPSSVSAAVGGTVTINCQSSQSVDSDNYLAWYQQKPGQPPKLLIYDTSKLASGVPSRFTGSGSGTQFTLTISGVQSDDAATYYCQGTYYNAGWYFAFGGGTEVVVK
11 | – | – | – | – | 1.99 | 0.407 | 2.08 | 534 | P018.S.12.A.G04 (antibody, V domains shown, V regions on human Ig constant parts; also called AB134_86) VH: QSVEESGGRLVTPGTPLTLTCTVSGFSLNSYDMSWVRQAPGKGLEWIGFISAIDNTYYASWAKGRFTISKTSTTVDLKITSPTTEDTATYFCASDSYGWAYVYYFNLWGPGTLVTVSS VL: AVVLTQTPASVSATVGGTVTINCRASEDIGSYLGWYQQKPGQPPKLLIHDASDLASGVPSRFSGSGSGTEFTLTISGVQSDDAATYYCQSAWYSSDSDKMAFGGGTEVVVK
12 | – | – | – | – | 2.11 | 0.238 | 1.96 | 483 | P018.S.12.A.C03 (antibody, V domains shown, V regions on human Ig constant parts; also called AB134_63) VH: QEQLKESGGDLVTPGTPLTLTCTVSGFSLSSYAMAWVRQAPGKGLEYIGFIDTDGSAYYASWAKGRFTISRTSTTVDLKITSPTTEDTATYFCAGDSYGYAGFVYFNLWGPGTLVTVSS VL: DVVMTQTPASVSEPVGGTVTIKCQASQNIYSSLAWYQQKPGQPPKLLIYDASDLASGVPSRFKGSGSGTQFTLTISDLESDDAATYYCQCSYYGVDYVGGFGGGTEVVVK
13 | – | – | – | – | 2.19 | 0.348 | 2.37 | 527 | P018.S.12.A.H05 (antibody, V domains shown, V regions on human Ig constant parts; also called AB134_91) VH: QSLEESGGDLVKPGASLTLTCTASGFSFDIDYYMCWVRQAPGKGLEWIACIYAGSSGSTYYASWAKGRFTISKTSSTTVTLQMPSLTAADTATYFCARHYAGYAGDAYATDYYFNLWGRGTLVTVSS VL: DIVMTQTPSSVSATVGDTVTINCQASQSVSNFLAWYQQKPGQPPKPLIYGASNLESGVPSRFRGSGSGTEFTLTISGMKAEDAATYYCQSGYYSATFGAGTKVEIK
14 | – | – | – | – | 2.14 | 0.071 | 2.41 | 600 | P018.S.12.A.A01 (antibody, V domains shown, V regions on human Ig constant parts; also called AB134_50) VH: QSVEESGGRLVTPGTPLTLTCTVSGFSLSSYAMIWVRQAPGKGLEYIGYISYDGSTYYASWVKGRFTISKTSTTVDLKMTSLTTEDTATYFCARARIDDGYGNLWGQGTLVTVSS VL: DVVMTQTPASVSEPVGGTVTIKCQASESISNYLAWYQQKPGQPPKLLIYAASYLASGVPSRFRGSGSGTEFTLTISDLESADAATYYCQCTYVASTYVGTFGGGTEVVVK
